Data from patent US20220106398A1 (IGM BIOSCIENCES, published 2022).

Biological target: T1, human GITR on HEK 293 cells (human, UniProt Q9Y5U5 26-241)
T1 construct: Bought cell line; also called GITR-expressing 293 cells; HEK 293 cells expressing human GITR (CrownBio, #C2011)
T1 sequence: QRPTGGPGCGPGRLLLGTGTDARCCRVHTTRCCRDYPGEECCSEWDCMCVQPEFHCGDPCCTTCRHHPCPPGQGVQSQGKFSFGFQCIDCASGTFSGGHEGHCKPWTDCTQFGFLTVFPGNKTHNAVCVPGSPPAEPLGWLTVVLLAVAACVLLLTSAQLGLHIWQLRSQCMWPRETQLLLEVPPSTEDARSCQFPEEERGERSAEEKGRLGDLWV
Assay: flow cytometry on HEK 293 cells expressing human GITR
Procedure: Cells were washed twice, then stained for 30 minutes at 4° C. with 5 ug/mL mouse anti-human kappa-ALEXA FLUOR® 647 secondary antibody (Southern Biotech #9230-31) diluted in FACS buffer. Cells were washed twice, resuspended in FACS Stain Buffer, and signal was acquired by flow cytometry.

B1: GITR-Mab-6 IgM/J* (antibody)
heavy: QVQLVQSGAEVKKPGASVKVSCKASGYAFTAYYLHWVRQAPGQGLEWMGWMNPNSGNTGYAQKFQGRVTMTRDTSTSTVYMELSSLRSEDTAVYYCAREGWGYYDGGFDPWGQGTLVTVSS
light: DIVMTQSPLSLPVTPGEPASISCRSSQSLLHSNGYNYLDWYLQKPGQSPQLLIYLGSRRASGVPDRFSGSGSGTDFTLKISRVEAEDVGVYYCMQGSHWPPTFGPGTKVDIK
chain: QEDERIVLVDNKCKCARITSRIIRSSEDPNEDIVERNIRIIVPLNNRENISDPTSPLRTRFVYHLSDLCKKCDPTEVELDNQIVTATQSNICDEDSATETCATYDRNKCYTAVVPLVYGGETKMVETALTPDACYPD
notes: IgM with variant J-chain J* (Y102A); not shown: IgM heavy chain constant region of proprietary vector; light chain constant region of proprietary vector (detected with anti-human kapp)
binding result: binds
